Measured values as given in publication PMC9774438 (2022).

What was measured:
Hm-AMP8 [1] = molecular target: T1, Hm-AMP8 (synthetic construct); assay: Celestine Blue B chlorinating activity assay (varying Cl-, uncompetitive inhibition)
T1 chain: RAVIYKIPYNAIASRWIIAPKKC

pept_1545 [2] = molecular target: T2, pept_1545 (synthetic construct); assay: Amplex Red peroxidase activity assay (varying H2O2, uncompetitive inhibition)
T2 chain: FLIGKAIKRKFCLRSVWNA

Hm-AMP8 [3] = molecular target: T1, Hm-AMP8; assay: as above
pept_1545 [4] = molecular target: T2, pept_1545; assay: Celestine Blue B chlorinating activity assay (varying Cl-, competitive inhibition)
pept_1545 [5] = molecular target: T2, pept_1545; assay: Amplex Red peroxidase activity assay (varying Amplex Red, mixed inhibition)
Hm-AMP8 [6] = molecular target: T1, Hm-AMP8; assay: as above
pept_1545 [7] = molecular target: T2, pept_1545; assay: Celestine Blue B chlorinating activity assay (varying H2O2, uncompetitive inhibition)
Hm-AMP8 [8] = molecular target: T1, Hm-AMP8; assay: as above

B1: Myeloperoxidase (protein)
chain: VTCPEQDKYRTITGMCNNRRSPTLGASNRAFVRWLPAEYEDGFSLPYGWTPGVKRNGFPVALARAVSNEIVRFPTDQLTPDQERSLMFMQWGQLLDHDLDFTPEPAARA
Ki (Hm-AMP8 [1]): 0.42 µM | Ki (pept_1545 [2]): 52.8 µM | Ki (Hm-AMP8 [3]): 1.79 µM | Ki (pept_1545 [4]): 19.5 µM | Ki (pept_1545 [5]): 48.3 µM | Ki (Hm-AMP8 [6]): 1.1 µM | Ki (pept_1545 [7]): 10.8 µM | Ki (Hm-AMP8 [8]): 0.28 µM
